# From patent publication US20190233512A1 (SUTRO BIOPHARMA, published 2019)
# How the values were obtained:
# [1] = target: T1, Cynomolgus folate receptor alpha (cynomolgus monkey, UniProt P15328 25-234 (human entry)); assay: FACS, CHO-cFOLR1 cells
# T1 construct: Stably expressed on CHO cells (CHO-cFOLR1); also called cynomolgus FOLR1; CHO-cFOLR1
# [2] = target: T2, Human folate receptor alpha (hFOLR1) (human, UniProt P15328 25-234); assay: FACS, CHO-hFOLR1 cells
# T2 construct: Stably expressed on CHO cells (CHO-hFOLR1) for flow cytometry; endogenous on FOLR1-positive KB and Igrov1 cells in the killing assay; also called human FOLR1; FolRα
# T2 sequence (P15328 25-234 limits assumed): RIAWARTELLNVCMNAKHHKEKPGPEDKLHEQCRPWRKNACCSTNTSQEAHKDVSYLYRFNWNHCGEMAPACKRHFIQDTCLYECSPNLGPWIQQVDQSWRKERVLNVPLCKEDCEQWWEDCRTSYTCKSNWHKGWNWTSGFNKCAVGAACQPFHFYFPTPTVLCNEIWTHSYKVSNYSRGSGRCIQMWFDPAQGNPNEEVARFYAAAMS
# Method: CHO cells were transfected to stably express human (CHO-hFOLR1), cynomolgus (CHO-cFOLR1), or mouse (CHO-mFOLR1) target molecule FOLR1 on the cell surface. Parental CHO cells were used as a negative control to determine background binding levels. Parental CHO and stably transfected CHO-hFOLR1, CHO-cFOLR1, and CHO-mFOLR1 cells were cultured in Ham's F-12: high glucose DMEM (50:50) (Corning, Cellgro-Mediatech) supplemented with 10% heat-inactivated fetal bovine serum (Corning, Cellgro-Mediatech), 1% Penicillin/Streptomycin (Corning, Cellgro-Mediatech) and 2 mmol/L-glutamax (Life Technology).
# A mixture of fluoresecent-labeled parental CHO cells and unlabeled CHO-hFOLRlcells were prepared as follows. Parental CHO cells were washed twice in PBS and incubated in PBS containing with 1 nM CellTrace™ Oregon Green488® (Life Technologies) at 37° C. for 30 minutes. Labeled parental CHO cells were then washed 2× with Ham's F-12 media and 2× with FACS buffer (PBS with 1% bovine serum albumin). Unlabeled CHO-hFOLR1 cells were similarly washed and prepared. Labeled parental CHO and unlabeled CHO-hFOLR1 cells were combined at 1:1 ratio and seeded at 50 μL per well (200,000 cells per well) in 96 well polypropylene plates. Cells were mixed with 50 μL of test antibodies (i.e., anti-FOLR1 variants) serially diluted in FACS buffer and incubated on ice for 60 mins. Cells were washed with FACS buffer and incubated on ice for 60 mins with 100 μL FACS buffer containing 2.5 μg/mL R-Phycoerythrin-conjugated goat anti-Human IgG (Jackson ImmunoResearch Laboratories, West Grove, Pa.). Cells were washed twice with FACS buffer, fixed in 2% paraformaldehyde in PBS (Santa Cruz Biotechnology; Dallas, Tex.) for 10 mins on ice in the dark, and analyzed using the BD LSR II Flow Cytometer (BD Biosciences; San Jose, Calif.). Data were analyzed using FlowJo® software (FlowJo, LLC; Ashland, Oreg.) to determine mean fluorescence intensities. Binding constants were calculated using the statistical software, GraphPad Prism (GraphPad Software; La Jolla, Calif.) using the nonlinear regression equation, one site-specific binding with Hill slope. Secondary antibody alone was used as a control, in addition to measuring non-specific antibody binding to CHO parental cells.
# [3] = target: T3, Murine folate receptor alpha (mouse, UniProt P35846 25-232); assay: FACS, CHO-mFOLR1 cells
# T3 construct: Stably expressed on CHO cells (CHO-mFOLR1); also called mouse FOLR1; CHO-mFOLR1
# T3 sequence (P35846 25-232 limits assumed): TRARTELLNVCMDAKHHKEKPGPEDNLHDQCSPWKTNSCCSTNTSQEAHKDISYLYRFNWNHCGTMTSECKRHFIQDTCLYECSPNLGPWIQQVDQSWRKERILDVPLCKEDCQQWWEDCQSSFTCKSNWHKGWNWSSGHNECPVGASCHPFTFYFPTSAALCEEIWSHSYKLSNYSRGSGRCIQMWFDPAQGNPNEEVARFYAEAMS
# T1 sequence (P15328 other isoform, or with tags, fused parts or gaps limits assumed): as the sequence (P15328 25-234 limits assumed) above, with I2T, W4R, R37K, Q117R, A146P, H171Y counted along it
Binder,Bmax [1] [MFI],Bmax [2] [MFI],Bmax [3] [MFI]
"SRP1848-B10 (antibody, V domains shown, VH/VL only; Fc-bearing IgG format with trastuzumab LC, HIS/FLAG-tagged, cell-free expressed; constant regions not tied; also called Antibody 16) VH: EVQLVESGGGLVQPGGSLRLSCAASGFNTTTKSIHWVRQAPGKGLEWVGEIYPRDGITDYADSVKGRFTISADTSKNTAYLQMNSLRAEDTAVYYCARGGWHWRSGYSYYLDYWGQGTLVTVSS VL: not shown",21300,28200,2460
"SRP1848-C07 (antibody, V domains shown, VH/VL only; Fc-bearing IgG format with trastuzumab LC, HIS/FLAG-tagged, cell-free expressed; constant regions not tied; also called Antibody 22) VH: EVQLVESGGGLVQPGGSLRLSCAASGFNIRKYSIHWVRQAPGKGLEWVGDIFPIDGITDYADSMKGRFTISADTSKNTAYLQMNSLRAEDTAVYYCARGSWSWPAGYGYYQDYWGQGTLVTVSS VL: not shown",18100,28800,3170
"SRP1848-C01 (antibody, V domains shown, VH/VL only; Fc-bearing IgG format with trastuzumab LC, HIS/FLAG-tagged, cell-free expressed; constant regions not tied; also called Antibody 18) VH: EVQLVESGGGLVQPGGSLRLSCAASGFNIGNSYIHWVRQAPGKGLEWVGGVTPNDGYTDYADSVKGRFTISADTSKNTTYLQMNSLRAEDTAVYYCARGSWFWRAGYGYYLDYWGQGALVTVSS VL: not shown",25900,28500,1370
"SRP1848-B11 (antibody, V domains shown, VH/VL only; Fc-bearing IgG format with trastuzumab LC, HIS/FLAG-tagged, cell-free expressed; constant regions not tied; also called Antibody 17) VH: EVQLVESGGGLVQPGGSLRLSCAASGFNIGNNSIHWVRQAPGKGLEWVGDISPIDGFTDYADSVKGRFTISADTSKNTAYLQMNSLRAEDTAVYYCARGSWSWRAGYGYYLDYWGQGTLVTVSS VL: not shown",22900,28400,1630
"SRP1848-C10 (antibody, V domains shown, VH/VL only; Fc-bearing IgG format with trastuzumab LC, HIS/FLAG-tagged, cell-free expressed; constant regions not tied; also called Antibody 23) VH: EVQLVESGGGLVQPGGSLRLSCAASGFNIRTYYIHWVRQAPGKGLEWVGGISPIDGYTDYADSVKGRFTISADTSKNTAYLQMNSLRAEDTAVYYCARGSWSWPAGYGYYLDYWGQGTLVTVSS VL: not shown",16000,27500,2330
"SRP1848-D05 (antibody, V domains shown, VH/VL only; Fc-bearing IgG format with trastuzumab LC, HIS/FLAG-tagged, cell-free expressed; constant regions not tied; also called Antibody 27) VH: EVQLVESGGGLVQPGGSLRLSCAASGFNISISYIHWVRQAPGKGLEWVGGISPIDGYTDYADSVKGRFTISADTSKNTAYLQMNSLRAEDTAVYYCARGSWSWRAGYGYYLDYWGQGTLVTVSS VL: not shown",22200,26700,1360
"SRP1848-D02 (antibody, V domains shown, VH/VL only; Fc-bearing IgG format with trastuzumab LC, HIS/FLAG-tagged, cell-free expressed; constant regions not tied; also called Antibody 24) VH: EVQLVESGGGLVQPGGSLRLSCAASGFNISHNYIHWVRQAPGKGLEWVGGITPQDGYTDYADSVKGRFTISADTSKNTAYLQMNRLRAEDTAVYYCARGAWSWRAGYGYYLDYWGQGTLVTVSS VL: not shown",28000,28800,916
"SRP1848-C04 (antibody, V domains shown, VH/VL only; Fc-bearing IgG format with trastuzumab LC, HIS/FLAG-tagged, cell-free expressed; constant regions not tied; also called Antibody 20) VH: EVQLVESGGGLVQPGGSLRLSCAASGFNIRHYSIHWVRQAPGKGLEWVGEIYPGPGNTDYADSVKGRFTISADTSKNTAYLQMNSLRAEDTAVYYCARGSLSWRAGYGYYLDYWGQGTLVTVSS VL: not shown",22000,26300,2510
"SRP1848-C05 (antibody, V domains shown, VH/VL only; Fc-bearing IgG format with trastuzumab LC, HIS/FLAG-tagged, cell-free expressed; constant regions not tied; also called Antibody 21) VH: EVQLVESGGGLVQPGGSLRLSCAASGFNIRKYSIHWVRQAPGKGLEWVGDIFPIDGINDYADSVKGRFTISADTSKNTAYLQMNSLRAEDTAVYYCARGSWSWKAGYGYYLDYWGQGTLVTVSS VL: not shown",15200,26800,4130
"SRP1848-C03 (antibody, V domains shown, VH/VL only; Fc-bearing IgG format with trastuzumab LC, HIS/FLAG-tagged, cell-free expressed; constant regions not tied; also called Antibody 19) VH: EVQLVESGGGLVQPGGSLRLSCAASGFNIGVYSIHWVRQAPGKGLEWVGEIYPIDGNTDYADSVKGRFTISADTSKNTAYLQMNSLRAEDTAVYYCARGSWAWRSGYSYYLDYWGQGTLVTVSS VL: not shown",25100,29100,3310

# Now from value to binder:
Bmax [1] [MFI],Bmax [2] [MFI],Bmax [3] [MFI],Binder
18700,27400,1390,"SRP1848-F07 (antibody, V domains shown, VH/VL only; Fc-bearing IgG format with trastuzumab LC, HIS/FLAG-tagged, cell-free expressed; constant regions not tied; also called Antibody 42) VH: EVQLVESGGGLVQPGGSLRLSCAASGFNISNHSIHWVRQAPGKGLEWVGEIYPNDGITDYADSVKGRFTISADTSKNTAYLQMNSLSAEDTAVYYCARGSWDWRSGYSYYLDYWGQGTLVTVSS VL: not shown"
24700,27200,5100,"SRP1848-F05 (antibody, V domains shown, VH/VL only; Fc-bearing IgG format with trastuzumab LC, HIS/FLAG-tagged, cell-free expressed; constant regions not tied; also called Antibody 40) VH: EVQLVESGGGLVQPGGSLRLSCAASGFNISKSSIHWVRQAPGKGLEWVGEIYPNDGSTDYADSVKGRFTISADTSKNTAYLQMNSLRAEDTAVYYCARGSWAWRSGYSYFLDYWGQGTLVTVSS VL: not shown"
24200,23800,1670,"SRP1848-F09 (antibody, V domains shown, VH/VL only; Fc-bearing IgG format with trastuzumab LC, HIS/FLAG-tagged, cell-free expressed; constant regions not tied; also called Antibody 44) VH: EVQLVESGGGLVQPGGSLRLSCAASGFNISNHYIHWVRQAPGKGLEWVGGISPLDGYTDYADSVKGRFTISADTSKNTAYLQMNSLRAEDTAVYYCARGAWSWRSGYGYYIDYWGQGTLVTVSS VL: not shown"
20600,26500,1860,"SRP1848-D10 (antibody, V domains shown, VH/VL only; Fc-bearing IgG format with trastuzumab LC, HIS/FLAG-tagged, cell-free expressed; constant regions not tied; also called Antibody 30) VH: EVQLVESGGGLVQPGGSLRLSCAASGFNISRNSIHWVRQAPGKGLEWVGWISPNDGTTDYADSVKGRFTISADGSKNTAYLQMNSLRAEDTAVYYCARGAWSWRSGYGYYIDYWGQGTLVTVSS VL: not shown"
20400,27300,11800,"SRP1848-E07 (antibody, V domains shown, VH/VL only; Fc-bearing IgG format with trastuzumab LC, HIS/FLAG-tagged, cell-free expressed; constant regions not tied; also called Antibody 36) VH: EVQLVESGGGLVQPGGSLRLSCAASGFNIRKSSIHWVRQAPGKGLEWVGEIFPYDGSTDYADNVKGRFTISADTSKNTAYLQMNSLRAEDTAVYYCARGAWSWRSGYGYYIDYWGQGTLVTVSS VL: not shown"
20900,27400,1990,"SRP1848-G01 (antibody, V domains shown, VH/VL only; Fc-bearing IgG format with trastuzumab LC, HIS/FLAG-tagged, cell-free expressed; constant regions not tied; also called Antibody 47) VH: EVQLVESGGGLVQPGGSLRLSCAASGFNISRHSIHWVRQAPGKGLEWVGWIAPNDGSTDYADSVKGRFTISADTSKNTAYLQMNSLRAEDTAVYYCARGSWAWRSGYSYFLDYWGQGTLVTVSS VL: not shown"
21500,25200,3750,"SRP1848-F01 (antibody, V domains shown, VH/VL only; Fc-bearing IgG format with trastuzumab LC, HIS/FLAG-tagged, cell-free expressed; constant regions not tied; also called Antibody 37) VH: EVQLVESGGGLVQPGGSLRLSCAASGFNIRTYSIHWVRQAPGKGLEWVGSIFPNDGTTDYADSVKGRFTISADTSKNTAYLQMNSLRAEDTAVYYCARGSWAWRAGYSYYLDYWGQGTLVTVSS VL: not shown"
20700,25600,1740,"SRP1848-F10 (antibody, V domains shown, VH/VL only; Fc-bearing IgG format with trastuzumab LC, HIS/FLAG-tagged, cell-free expressed; constant regions not tied; also called Antibody 45) VH: EVQLVESGGGLVQPGGSLRLSCAASGFNISNNSIHWVRQAPGKGLEWVGSIFPNDGYTDYADSVKGRFTISADTSKNTAYLQMNSLRAEDTAVYYCARGSWFWRSGYGYYLDYWGQGTLVTVSS VL: not shown"
14900,25700,2740,"SRP1848-F02 (antibody, V domains shown, VH/VL only; Fc-bearing IgG format with trastuzumab LC, HIS/FLAG-tagged, cell-free expressed; constant regions not tied; also called Antibody 38) VH: EVQLVESGGGLVQPGGSLRLSCAASGFNIRTYSIHWVRQAPGKGLEWVGSIFPNDGTTDYADSVKGRLTISADTSKNTAYLQMNSLRAEDTAVYYCARGSWSWQAGYGYYLDYWGQGTLVTVSS VL: not shown"
21800,26800,1760,"SRP1848-F11 (antibody, V domains shown, VH/VL only; Fc-bearing IgG format with trastuzumab LC, HIS/FLAG-tagged, cell-free expressed; constant regions not tied; also called Antibody 46) VH: EVQLVESGGGLVQPGGSLRLSCAASGFNISNNYIHWVRQAPGKGLEWVGGITPIDGNTDYADSVKGRFTISADTSMNTAYLQMNSLRAEDTAVYYCARGSWYWRAGYGYYLDYWGQGALVTVSS VL: not shown"
18700,23800,1470,"SRP1848-E02 (antibody, V domains shown, VH/VL only; Fc-bearing IgG format with trastuzumab LC, HIS/FLAG-tagged, cell-free expressed; constant regions not tied; also called Antibody 32) VH: EVQLVESGGGLVQPGGSLRLSCAASGFNIGKYSIHWVRQAPGKGLEWVGEIYPNDGNTDYADSVKGRFTISADTSKNTAYLQMNSLRAEDTAVYYCARGSWSWRSGYGYYLDYWGQGTLVTVSS VL: not shown"
